Earlier results in article PMC4526808.
Like-named read-outs stand apart in the source and are kept apart here.

What was measured:
PKA RIIα D/D domain [1] = molecular target: PKA RIIα D/D domain (UniProt P13861)
PKA RIIα D/D domain [2] = molecular target: PKA RIIα D/D domain (UniProt P13861); remark: listed apart in the source
PKA RIα D/D domain [3] = molecular target: PKA RIα D/D domain (UniProt P10644)
PKA RIIα D/D domain [4] = molecular target: PKA RIIα D/D domain (UniProt P13861); remark: listed apart in the source
PKA RIα D/D domain [5] = molecular target: PKA RIα D/D domain (UniProt P10644); remark: listed apart in the source

UniProt P13861, sequence (P13861 2-45): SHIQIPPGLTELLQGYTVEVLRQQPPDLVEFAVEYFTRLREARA
UniProt P10644, sequence (P10644 1-61): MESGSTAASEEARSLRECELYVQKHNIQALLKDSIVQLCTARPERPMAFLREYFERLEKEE

AKAP-is
Kd (PKA RIIα D/D domain [1]): 0.4 nM

Ht31
Kd (PKA RIIα D/D domain [2]): 2.2 nM
Kd (PKA RIα D/D domain [3]): 1300 nM

RIAD
Kd (PKA RIIα D/D domain [4]): 1800 nM
Kd (PKA RIα D/D domain [5]): 1 nM
